Experimental data reported in US20250243263A1.

Legend:
[1] = molecular target: Tau204-222 phospho-peptide (pS214/pT217) (human); assay: one point ELISA
[2] = molecular target: Tau204-222 phospho-peptide (pT212) (human); assay: one point ELISA
[3] = molecular target: Tau204-222 phospho-peptide (pS214) (human); assay: one point ELISA
[4] = molecular target: tPeptide 5 (204-222) (human); assay: one point ELISA
[5] = molecular target: Tau204-222 phospho-peptide (pT212/pS214/pT217) (human); assay: one point ELISA
[6] = molecular target: Tau204-222 phospho-peptide (pT212/pT217) (human); assay: one point ELISA
[7] = molecular target: Tau204-222 phospho-peptide (pT217) (human); assay: one point ELISA
[8] = molecular target: Tau204-222 phospho-peptide (pT212/pS214) (human); assay: one point ELISA
[9] = molecular target: Tau191-214 phospho-peptide (pS199) (human); assay: one point ELISA
[10] = molecular target: pS199-old (SCBio-4PEG-Peptide, Tau191-214) (human); assay: one point ELISA
[11] = molecular target: Tau191-214 phospho-peptide (pS202) (human); assay: one point ELISA
[12] = molecular target: Tau191-214 phospho-peptide (pT205) (human); assay: one point ELISA
[13] = molecular target: Tau191-214 phospho-peptide (pS199/pS202/pT205) (human); assay: one point ELISA
[14] = molecular target: Tau191-214 phospho-peptide (pS199/pS202) (human); assay: one point ELISA
[15] = molecular target: Tau191-214 phospho-peptide (pS199/pT205) (human); assay: one point ELISA
[16] = molecular target: Tau191-214 phospho-peptide (pS202/pT205) (human); assay: one point ELISA
[17] = molecular target: AT8 peptide (amino acids 195-215 of tau) (human); assay: BLI (Octet), phospho-peptide on streptavidin tips
[18] = molecular target: Tau217-234 phospho-peptide (pT217/pT220/pT231) (human); assay: BLI
[19] = molecular target: Tau225-240 phospho-peptide (pT231) (human); assay: BLI

Chain of Tau191-214 phospho-peptide (pT205) (human) (peptide, as listed by the source): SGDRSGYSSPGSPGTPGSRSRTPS
Chain of AT8 peptide (amino acids 195-215 of tau) (human) (peptide, as listed by the source): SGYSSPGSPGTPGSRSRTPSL

Substance	OD (450 nm) [1] [OD450]	OD (450 nm) [2] [OD450]	OD (450 nm) [3] [OD450]	OD (450 nm) [4] [OD450]	OD (450 nm) [5] [OD450]	OD (450 nm) [6] [OD450]	OD (450 nm) [7] [OD450]	OD (450 nm) [8] [OD450]	OD (450 nm) [9] [OD450]	OD (450 nm) [10] [OD450]	OD (450 nm) [11] [OD450]	OD (450 nm) [12] [OD450]	OD (450 nm) [13] [OD450]	OD (450 nm) [14] [OD450]	OD (450 nm) [15] [OD450]	OD (450 nm) [16] [OD450]	Kd [17] [pM]	Kd [18] [pM]	Kd [19] [pM]
PT3-hIgG1 (antibody)	3.13	3.16	3.14	2.81	3.17	3.16	3.13	3.14											
hIgG1 isotype control (antibody)	0.059	0.06	0.061	0.141	0.053	0.057	0.083	0.059	0.058	0.06	0.055	0.054	0.245	0.062	0.09	0.249			
anti-tau antibody AT8 (ThermoFisher, Waltham, MA)									0.056	0.056	0.058	0.065	3.07	2.39	0.139	2.94	309		
IPN002-hIgG1 (antibody)				0.281															
AT180 (antibody)																		5	6
anti-tau antibody AT100 (ThermoFisher, Waltham, MA)	0.067	0.069	0.065		0.187	0.069	0.068	0.071											
